From patent publication US20020159976A1

How the values were obtained:
[1] = target: T1, casein peptide αs1-casein(1-17) (UniProt P02662)
T1 sequence: RPKHPIKHQGLPQEVLN

[2] = target: type I collagen from calf skin (calf) (UniProt P02453); assay: dot blot, ~1 ug ligand on nitrocellulose, 125I-labelled binder, autoradiograph density divided by Ponceau S density, mean of two dots
[3] = target: fibronectin from human plasma (human) (UniProt P02751); assay: as above
[4] = target: laminin from the basement membrane of Engelbreth-Holm-Swarm mouse sarcoma (mouse) (UniProt P19137); assay: as above
[5] = target: type IV collagen from human placenta (human) (UniProt P02462); assay: as above
[6] = target: type III mucin partially purified from porcine stomach (porcine); assay: as above
[7] = target: bovine serum albumin (bovine) (UniProt P02769); assay: as above

Sequence of UniProt P02462 (P02462 173-1440, chain 1 of 2): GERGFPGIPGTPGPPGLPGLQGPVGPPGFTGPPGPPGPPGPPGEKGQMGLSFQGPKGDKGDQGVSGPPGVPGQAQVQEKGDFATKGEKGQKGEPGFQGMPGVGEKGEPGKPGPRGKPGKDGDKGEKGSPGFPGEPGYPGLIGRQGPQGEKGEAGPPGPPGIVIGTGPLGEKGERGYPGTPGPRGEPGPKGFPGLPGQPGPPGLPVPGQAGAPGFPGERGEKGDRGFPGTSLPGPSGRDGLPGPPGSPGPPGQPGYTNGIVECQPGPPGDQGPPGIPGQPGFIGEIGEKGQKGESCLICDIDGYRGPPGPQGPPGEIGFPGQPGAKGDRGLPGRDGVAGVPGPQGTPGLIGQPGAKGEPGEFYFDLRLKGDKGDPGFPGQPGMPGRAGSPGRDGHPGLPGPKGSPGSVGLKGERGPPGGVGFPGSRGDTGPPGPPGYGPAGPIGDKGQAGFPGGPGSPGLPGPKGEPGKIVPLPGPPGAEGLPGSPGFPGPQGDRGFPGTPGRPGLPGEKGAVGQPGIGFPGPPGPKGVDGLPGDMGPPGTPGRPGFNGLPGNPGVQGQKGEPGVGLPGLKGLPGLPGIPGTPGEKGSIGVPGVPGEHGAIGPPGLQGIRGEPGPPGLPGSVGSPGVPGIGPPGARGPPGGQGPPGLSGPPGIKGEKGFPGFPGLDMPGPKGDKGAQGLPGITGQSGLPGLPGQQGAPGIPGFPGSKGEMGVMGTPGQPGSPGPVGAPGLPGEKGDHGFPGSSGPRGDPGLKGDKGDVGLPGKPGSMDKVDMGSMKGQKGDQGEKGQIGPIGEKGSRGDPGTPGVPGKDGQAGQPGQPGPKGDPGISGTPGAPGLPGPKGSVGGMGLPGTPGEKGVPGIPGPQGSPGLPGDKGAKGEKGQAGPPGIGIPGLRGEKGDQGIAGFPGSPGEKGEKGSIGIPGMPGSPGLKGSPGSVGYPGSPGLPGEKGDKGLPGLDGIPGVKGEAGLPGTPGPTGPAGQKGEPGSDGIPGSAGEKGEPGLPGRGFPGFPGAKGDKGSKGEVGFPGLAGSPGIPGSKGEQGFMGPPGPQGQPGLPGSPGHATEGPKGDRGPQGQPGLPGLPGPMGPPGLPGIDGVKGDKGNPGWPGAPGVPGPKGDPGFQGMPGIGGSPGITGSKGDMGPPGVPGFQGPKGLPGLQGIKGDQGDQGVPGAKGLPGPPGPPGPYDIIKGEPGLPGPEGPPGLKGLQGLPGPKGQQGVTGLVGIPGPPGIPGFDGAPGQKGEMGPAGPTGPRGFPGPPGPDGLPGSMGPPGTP
Sequence of UniProt P02462 (P08572 184-1484, chain 2 of 2, further chain): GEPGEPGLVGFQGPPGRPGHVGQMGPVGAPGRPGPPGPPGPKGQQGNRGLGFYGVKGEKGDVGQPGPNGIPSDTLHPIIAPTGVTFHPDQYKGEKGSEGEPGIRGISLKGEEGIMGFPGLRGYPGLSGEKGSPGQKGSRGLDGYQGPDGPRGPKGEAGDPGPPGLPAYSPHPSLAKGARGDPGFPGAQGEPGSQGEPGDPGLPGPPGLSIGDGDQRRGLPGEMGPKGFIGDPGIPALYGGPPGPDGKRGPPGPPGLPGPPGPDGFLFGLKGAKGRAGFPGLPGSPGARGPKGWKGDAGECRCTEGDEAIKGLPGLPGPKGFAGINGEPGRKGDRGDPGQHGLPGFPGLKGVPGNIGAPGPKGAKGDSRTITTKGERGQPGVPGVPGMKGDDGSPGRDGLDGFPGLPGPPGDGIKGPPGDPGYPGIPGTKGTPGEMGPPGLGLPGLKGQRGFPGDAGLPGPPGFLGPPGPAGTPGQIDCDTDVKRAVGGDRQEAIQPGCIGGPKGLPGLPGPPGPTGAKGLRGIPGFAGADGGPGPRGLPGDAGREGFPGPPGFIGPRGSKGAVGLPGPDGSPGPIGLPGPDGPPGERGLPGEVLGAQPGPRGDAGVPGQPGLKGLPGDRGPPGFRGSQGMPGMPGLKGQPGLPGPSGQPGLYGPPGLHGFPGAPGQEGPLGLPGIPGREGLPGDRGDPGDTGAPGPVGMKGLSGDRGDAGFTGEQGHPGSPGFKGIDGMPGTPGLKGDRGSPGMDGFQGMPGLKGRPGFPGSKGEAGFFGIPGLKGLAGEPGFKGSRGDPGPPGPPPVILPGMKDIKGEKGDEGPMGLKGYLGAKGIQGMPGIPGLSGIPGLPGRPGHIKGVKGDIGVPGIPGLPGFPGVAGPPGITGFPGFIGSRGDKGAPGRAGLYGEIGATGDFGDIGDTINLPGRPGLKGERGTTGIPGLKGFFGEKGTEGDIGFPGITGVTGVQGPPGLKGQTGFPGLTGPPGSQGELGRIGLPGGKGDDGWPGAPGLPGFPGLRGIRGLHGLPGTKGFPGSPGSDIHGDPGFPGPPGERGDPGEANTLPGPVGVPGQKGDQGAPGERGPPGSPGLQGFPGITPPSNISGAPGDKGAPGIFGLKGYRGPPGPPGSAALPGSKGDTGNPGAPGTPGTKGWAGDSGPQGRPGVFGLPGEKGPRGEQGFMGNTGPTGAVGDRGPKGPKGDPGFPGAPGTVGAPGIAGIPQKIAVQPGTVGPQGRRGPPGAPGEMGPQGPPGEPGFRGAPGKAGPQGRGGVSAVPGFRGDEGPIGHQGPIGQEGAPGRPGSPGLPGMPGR
Sequence of UniProt P02751 (P02751 other isoform, or with tags, fused parts or gaps limits assumed): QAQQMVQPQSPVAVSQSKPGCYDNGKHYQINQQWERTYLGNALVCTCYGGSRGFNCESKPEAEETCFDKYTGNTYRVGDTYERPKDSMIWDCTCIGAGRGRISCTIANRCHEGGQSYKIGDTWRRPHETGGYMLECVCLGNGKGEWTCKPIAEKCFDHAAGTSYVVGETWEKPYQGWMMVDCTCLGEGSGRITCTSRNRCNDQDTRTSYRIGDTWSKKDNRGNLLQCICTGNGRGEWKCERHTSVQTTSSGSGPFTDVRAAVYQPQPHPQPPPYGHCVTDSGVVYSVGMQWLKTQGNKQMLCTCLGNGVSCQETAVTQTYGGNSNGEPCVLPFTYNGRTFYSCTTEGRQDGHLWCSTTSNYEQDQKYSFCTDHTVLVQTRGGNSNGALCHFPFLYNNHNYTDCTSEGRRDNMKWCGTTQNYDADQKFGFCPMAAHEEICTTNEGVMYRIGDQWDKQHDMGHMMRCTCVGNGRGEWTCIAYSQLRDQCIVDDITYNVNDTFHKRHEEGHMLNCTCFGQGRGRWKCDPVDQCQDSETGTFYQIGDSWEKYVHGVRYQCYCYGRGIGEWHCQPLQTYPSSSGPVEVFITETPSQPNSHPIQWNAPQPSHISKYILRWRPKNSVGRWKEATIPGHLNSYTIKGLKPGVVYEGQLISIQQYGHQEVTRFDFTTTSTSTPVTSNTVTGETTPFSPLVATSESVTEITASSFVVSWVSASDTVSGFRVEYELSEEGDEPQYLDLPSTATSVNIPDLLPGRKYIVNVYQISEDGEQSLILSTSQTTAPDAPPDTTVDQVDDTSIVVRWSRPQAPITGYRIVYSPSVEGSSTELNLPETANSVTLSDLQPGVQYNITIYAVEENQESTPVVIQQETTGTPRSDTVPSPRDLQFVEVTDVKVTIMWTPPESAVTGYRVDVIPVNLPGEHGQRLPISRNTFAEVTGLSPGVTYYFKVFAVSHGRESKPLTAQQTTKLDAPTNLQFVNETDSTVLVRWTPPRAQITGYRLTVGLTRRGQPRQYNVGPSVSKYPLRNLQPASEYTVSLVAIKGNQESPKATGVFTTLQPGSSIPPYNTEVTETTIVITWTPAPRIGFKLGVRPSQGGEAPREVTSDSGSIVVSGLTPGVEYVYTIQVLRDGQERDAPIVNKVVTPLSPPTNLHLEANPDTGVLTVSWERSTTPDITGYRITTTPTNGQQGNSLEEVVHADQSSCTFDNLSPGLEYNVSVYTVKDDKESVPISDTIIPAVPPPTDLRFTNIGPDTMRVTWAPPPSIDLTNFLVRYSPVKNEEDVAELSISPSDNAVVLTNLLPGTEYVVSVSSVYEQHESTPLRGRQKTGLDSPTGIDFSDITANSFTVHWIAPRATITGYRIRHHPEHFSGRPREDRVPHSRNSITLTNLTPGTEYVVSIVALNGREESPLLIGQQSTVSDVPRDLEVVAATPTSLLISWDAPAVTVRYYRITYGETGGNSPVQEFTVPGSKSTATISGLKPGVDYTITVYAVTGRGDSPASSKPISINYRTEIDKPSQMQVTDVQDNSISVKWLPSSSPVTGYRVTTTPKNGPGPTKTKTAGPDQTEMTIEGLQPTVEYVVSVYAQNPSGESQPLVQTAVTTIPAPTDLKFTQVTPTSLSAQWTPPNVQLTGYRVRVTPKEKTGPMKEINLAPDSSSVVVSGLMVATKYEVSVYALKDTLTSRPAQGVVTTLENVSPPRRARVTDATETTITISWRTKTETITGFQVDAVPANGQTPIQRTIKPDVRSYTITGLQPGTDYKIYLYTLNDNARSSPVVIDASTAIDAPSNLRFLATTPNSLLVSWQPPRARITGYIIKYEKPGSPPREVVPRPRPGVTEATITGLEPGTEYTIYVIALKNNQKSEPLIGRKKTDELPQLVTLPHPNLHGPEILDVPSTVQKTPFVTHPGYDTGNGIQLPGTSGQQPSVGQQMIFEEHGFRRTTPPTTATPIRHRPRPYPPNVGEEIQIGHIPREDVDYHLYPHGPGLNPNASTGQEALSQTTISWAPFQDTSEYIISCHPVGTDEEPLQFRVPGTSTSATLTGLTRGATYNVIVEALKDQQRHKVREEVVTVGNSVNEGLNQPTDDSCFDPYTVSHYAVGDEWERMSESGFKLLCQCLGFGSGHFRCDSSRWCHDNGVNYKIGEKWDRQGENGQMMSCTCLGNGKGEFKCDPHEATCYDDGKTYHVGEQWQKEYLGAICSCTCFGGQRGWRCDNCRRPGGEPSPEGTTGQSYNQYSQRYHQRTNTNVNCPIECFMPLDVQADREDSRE

Row | Substance | height of the HPLC peak of unhydrolysed αs1-casein(1-17) after incubation with pepO-transformed HN001 (non-transformed: approximately 250 mAU) [1] | Relative mapA Binding (relative density) [2] | Relative mapA Binding (relative density) [3] | Relative mapA Binding (relative density) [4] | Relative mapA Binding (relative density) [5] | Relative mapA Binding (relative density) [6] | Relative mapA Binding (relative density) [7]
1 | HN001 peptidase pepO | the major peak of unhydrolysed αs1-casein(1-17) had a height of approximately 150 mAU |  |  |  |  |  | 
2 | mucus adhesion promoting (mapA) protein of Lactobacillus reuteri |  | 1.02 | 0.67 | 0.83 | 0.78 | 2.57 | 0.76
